pIC50: −log10 of the molar value.
Key:
Type in all cases: biochemical
Human plasma thrombin = molecular target: T1, Human plasma thrombin (Homo sapiens, UniProt P00734); assay: Assay for thrombin inhibitory activity (Example 36); details: final concentration up to ×10^-5 M; enzyme 3 × 10^-9 M
T1 construct: (5) Human plasma thrombin (Kabi, Daiichi Kagaku Yakuhin); purchased Kabi (via Daiichi Kagaku Yakuhin); host or cells: human plasma
Description: F. Human plasma thrombin (Sigma)
(§1) Thrombin and FXa: 50 mM Tris-HCl, 7.5 mM EDTA-2Na, 175 mM NaCl (pH 8.4) […]
(§2) Substrate solution: for the enzymes F, G, H and I, the following substrate f, g, h or i, respectively, was dissolved to a final concentration shown in Table 24.
f. H.D-Phe-Pip-Arg-pNA (Kabi Vitrum)
(§3) To wells of an ELISA 96-well microtiter plate, were added a solution of (Arg^58 -Ala^107) SLPI obtained in Example 34 and then the enzyme solution, and the mixture was incubated at 37° C. for 10 minutes. Next, the substrate solution was added to develop the color, whose absorption was then measured at 405 nm. As a control, SLPI was used.

Porcine FXa = assay: Assay for Fxa inhibitory activity (Example 36); details: final concentration up to ×10^-5 M; enzyme 1.0 × 10^-8 M
Description: I. Porcine FXa (Daichi Seiyaku)
as §1, §2
i. Ratio 1:1 mixture of the following compounds: [drawing 6]
as §3

[1] = system: polymorphonuclear leucocyte elastase from human sputum; assay: Inhibitory constant (Ki) assay, elastase (Example 37); details: from Table 26
Description: Method for assay is as follow.
Buffer: 0.1M N-(2-hydroxyethyl)piperazine-N'-2-ethanesulfonic acid (HEPES), 1.0M NaCl, 0.1% polyethylene glycol (pH 7.5)
Enzyme solution: the following enzyme was dissolved in the above-mentioned buffer to a concentration 9 times that shown in Table 25.
(§4) A. Polymorphonuclear leucocyte elastase from human sputum (EPC Co., Funakoshi Yakuhin)
Substrate solution: for the enzymes A and B, the following substrate a or b was dissolved in a solution of DMSO+the above-mentioned buffer (1:9), or in DMSO, respectively.
(§5) a. MeO-Suc-Ala-Ala-Pro-Val-pNA (Bachem) […]
To wells of an ELISA 96-well microtiter plate, were added 120 μl of the buffer, 20 μl of a sample solution of ([…] -Ala^107) SLPI obtained in Example 25, and 20 μl of the enzyme solution in this order, an the mixture was reacted at 37° C. for 1 hour. Next, 20 μl of the substrate was added to develop at 25° C. Absorption of the developed color was measured at 405 nm. As a control, SLPI was used.
On the basis of the result thus obtained, an inhibitory constant (Ki) of (Arg^58 -Ala^107) SLPI of the present invention was calculated according to the method of Henderson (Henderson, P. J. F. (1972), Biochem. J. 127, 321-333).

Human plasma kallikrein = molecular target: T2, Human plasma kallikrein (Homo sapiens, UniProt P03952); assay: Assay for kallikrein inhibitory activity (Example 36); details: final concentration up to ×10^-5 M; enzyme 1.0 × 10^-7 M
T2 construct: (7) Human plasma kallikrein (Kabi, Daiichi Kagaku Yakuhin); purchased Kabi (via Daiichi Kagaku Yakuhin); host or cells: human plasma
Description: H. Human plasma kallikrein (Protogene, Funakoshi Yakuhin)
Kallikrein: 50 mM Tris-HCl, 361 mM NaCl, 0.01 mg/ml Polybrene (pH 7.8) […]
as §2
h. H.D-Pro-Phe-Arg-pNA (Kabi Vitram)
as §3

Human plasma plasmin = molecular target: T3, Human plasma plasmin (Homo sapiens, UniProt P00747); assay: Assay for plasmin inhibitory activity (Example 36); details: final concentration up to ×10^-5 M; enzyme 1.0 × 10^-7 M
T3 construct: (6) Human plasma plasmin (Kabi, Daiichi Kagaku Yakuhin); purchased Kabi (via Daiichi Kagaku Yakuhin); host or cells: human plasma
Description: G. Human plasma plasmin (sigma)
Plasmin: 50 mM Tris-HCl, 100 mM NaCl (pH 7.4) […]
as §2
g. H.D-Val-Leu-Lys-pNA (Kabi Vitrum)
as §3

Bovine spleen trypsin = molecular target: T4, Bovine spleen trypsin (Bos taurus, UniProt P00760); assay: Assay for trypsin inhibitory activity (Example 35); details: enzyme 2 × 10^-7 M, substrate 1.0 × 10^-3 M
T4 construct: purchased Sigma
T4 sequence (P00760 24-246): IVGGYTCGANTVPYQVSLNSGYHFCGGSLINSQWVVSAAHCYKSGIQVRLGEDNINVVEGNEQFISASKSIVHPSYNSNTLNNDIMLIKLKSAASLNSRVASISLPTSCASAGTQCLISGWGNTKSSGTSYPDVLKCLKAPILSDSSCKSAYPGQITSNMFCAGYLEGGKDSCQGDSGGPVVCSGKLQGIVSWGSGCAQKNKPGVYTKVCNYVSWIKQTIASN
Description: (§6) Assay method used was as follows.
(§7) Buffer: 0.1M (2-hydroxyethyl)piperazine-N'-2-ethansulfonic acid (HEPES), 0.5M NaCl, pH 7.5.
(§8) Enzyme concentration: the following enzyme was dissolved in the above-mentioned buffer to a concentration 9 times that shown in Table 22.
B. Bovine spleen trypsin (Sigma)
Substrate solution: for the enzymes A, B, C, D and E, the following substrate a, b, c, d or e, respectively, was dissolved in a solution of DMSO +the above-mentioned buffer (1:9) (note, final concentration of DMSO was 10% in the buffer) to a concentration of 9 times that shown in Table 22. […]
(§9) To wells of an ELISA 96-well microtiter plate, were added 120 μl of the buffer and the 20 μl of a sample solution of (Arg^58 -Ala^107) SLPI obtained in Example 34, followed by 20 μl of the enzyme solution. The mixture was reacted at 37° C. for 10 minutes. Next, 20 μl of the substrate was added, and developed at 37° C. The developed color was measured by absorption at 405 nm.
(§10) As a control the same procedure was carried out using SLPI.

[2] = molecular target: T5, polymorphonuclear leucocyte elastase from human sputum (Homo sapiens, UniProt P08246); assay: Assay for elastase inhibitory activity (Example 35); details: enzyme 2 × 10^-8 M, substrate 3.0 × 10^-4 M
T5 construct: Polymorphonuclear leukocyte elastase from human sputum (EPC Co; Funakoshi Yakuhin); purchased EPC Co. (via Funakoshi Yakuhin); host or cells: human sputum
T5 sequence (P08246 30-267): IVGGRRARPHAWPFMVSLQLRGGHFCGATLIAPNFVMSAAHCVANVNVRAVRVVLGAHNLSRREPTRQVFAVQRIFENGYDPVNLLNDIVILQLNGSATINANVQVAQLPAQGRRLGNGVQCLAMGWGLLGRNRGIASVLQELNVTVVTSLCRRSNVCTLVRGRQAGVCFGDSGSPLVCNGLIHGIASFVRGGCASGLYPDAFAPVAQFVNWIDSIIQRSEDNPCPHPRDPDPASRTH
Description: as §6, §7, §8, §4
Substrate solution: for the enzymes A, B, C, D and E, the following substrate a, b, c, d or e, respectively, was dissolved in a solution of DMSO +the above-mentioned buffer (1:9) (note, final concentration of DMSO was 10% in the buffer) to a concentration of 9 times that shown in Table 22.
as §5, §9, §10

T3 sequence (P00747 581-810 limits assumed): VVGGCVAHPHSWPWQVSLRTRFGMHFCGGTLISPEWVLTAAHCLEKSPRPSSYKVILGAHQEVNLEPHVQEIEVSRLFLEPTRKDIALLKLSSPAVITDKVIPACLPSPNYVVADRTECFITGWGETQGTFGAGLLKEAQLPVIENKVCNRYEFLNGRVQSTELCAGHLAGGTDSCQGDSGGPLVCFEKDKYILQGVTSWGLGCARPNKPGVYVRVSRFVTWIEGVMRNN
T3 sequence (P00747 97-580 partner limits assumed): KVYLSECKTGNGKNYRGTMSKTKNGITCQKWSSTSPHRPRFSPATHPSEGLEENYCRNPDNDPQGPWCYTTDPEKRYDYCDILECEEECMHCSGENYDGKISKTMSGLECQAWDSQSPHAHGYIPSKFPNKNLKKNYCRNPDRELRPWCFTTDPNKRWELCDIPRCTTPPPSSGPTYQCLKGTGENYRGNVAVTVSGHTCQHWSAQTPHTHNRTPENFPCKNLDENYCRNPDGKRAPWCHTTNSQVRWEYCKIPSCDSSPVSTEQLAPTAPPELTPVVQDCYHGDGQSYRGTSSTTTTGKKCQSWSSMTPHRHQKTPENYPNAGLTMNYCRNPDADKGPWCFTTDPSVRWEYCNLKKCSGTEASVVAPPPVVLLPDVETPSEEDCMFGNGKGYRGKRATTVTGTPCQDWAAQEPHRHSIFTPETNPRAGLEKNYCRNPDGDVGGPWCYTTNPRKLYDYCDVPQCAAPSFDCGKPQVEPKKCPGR
T2 sequence (P03952 391-638 limits assumed): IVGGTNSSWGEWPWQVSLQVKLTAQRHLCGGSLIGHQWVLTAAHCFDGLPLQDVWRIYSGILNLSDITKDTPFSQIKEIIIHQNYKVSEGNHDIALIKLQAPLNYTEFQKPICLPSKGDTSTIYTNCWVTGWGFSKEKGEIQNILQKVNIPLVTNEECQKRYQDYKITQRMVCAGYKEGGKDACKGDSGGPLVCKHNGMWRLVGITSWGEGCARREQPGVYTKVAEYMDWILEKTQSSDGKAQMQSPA
T2 sequence (P03952 20-390 partner limits assumed): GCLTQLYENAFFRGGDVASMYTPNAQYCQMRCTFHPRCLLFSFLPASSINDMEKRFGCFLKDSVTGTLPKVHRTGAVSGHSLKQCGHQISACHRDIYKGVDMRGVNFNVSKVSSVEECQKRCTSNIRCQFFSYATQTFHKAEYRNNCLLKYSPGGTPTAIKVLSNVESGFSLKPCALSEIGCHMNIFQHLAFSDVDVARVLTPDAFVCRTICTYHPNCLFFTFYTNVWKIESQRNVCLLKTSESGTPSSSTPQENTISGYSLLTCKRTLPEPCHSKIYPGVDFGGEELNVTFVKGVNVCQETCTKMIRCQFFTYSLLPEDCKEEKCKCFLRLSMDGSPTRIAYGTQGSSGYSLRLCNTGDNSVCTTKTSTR

inhibitory activity to thrombin (Human plasma thrombin): did not exhibit inhibitory activity | relative ratio of inhibitory activity on trypsin to that on elastase (Ki(T)/Ki(E)) [1]: about 12,000 | inhibitory activity to kallikrein (Human plasma kallikrein): did not exhibit inhibitory activity | inhibitory activity to plasmin (Human plasma plasmin): did not exhibit inhibitory activity | pIC50 (Bovine spleen trypsin): 5.70 | pIC50 [2]: 7.92
Substance: (Arg^58 -Ala^107) SLPI: polypeptide having an amino acid sequence starting with the 58th Arg and ending at the 107th Ala of SLPI (RRKPGKCPVTYGQCLMLNPPNFCEMDGQCKRDLKCCMGMCGKSCVSPVKA)
inhibitory activity to FXa (Porcine FXa): did not exhibit inhibitory activity

Reference: US5851983A, “Elastase inhibitory polypeptide and process for production thereof by recombinant gene technology” (Teijin Limited, priority 1987, dated 1998)
